# Assay results from US20200040103A1 (Genentech, published 2020).
# T1: Recombinant human KLK5 residues I67-S293 (SEQ ID NO:328) (human, UniProt Q9Y337 67-293, lysine residues methylated in the 10C5 and 9H5 complexes that gave crystals)
# T1 construct: Expressed in Sf9 cells as ubiquitin fusion; ubiquitin removed with Enterokinase; also called Human KLK5 Crystal Structure Experiments
# T1 sequence: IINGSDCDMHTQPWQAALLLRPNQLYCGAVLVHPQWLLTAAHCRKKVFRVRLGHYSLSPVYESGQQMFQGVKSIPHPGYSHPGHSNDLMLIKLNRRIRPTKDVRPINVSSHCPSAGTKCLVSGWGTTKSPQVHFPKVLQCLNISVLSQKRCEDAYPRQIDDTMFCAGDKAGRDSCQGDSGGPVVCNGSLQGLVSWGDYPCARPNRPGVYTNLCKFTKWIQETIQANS
# B1: 10C5 Fab (Fab, V domains shown)
# VH: EVQLVESGGGLVQPGGSLRLSCAASGFSLSSYGVTWVRQAPGKGLEWIGYITSNYGVSYYASWAKSRSTISRDTSKNTVYLQMGSLRAEDMAVYYCARENPDYGYAYDAWGQGTTVTVSS
# VL: AIRMTQSPSSFSASTGDRVTITCQASESISNELSWYQQKPGKAPKLLIYYASTLASGVPSRFSGSGSGTDFTLTISSLQPEDFATYYCAQGFGSSGVENVFGGGTKVEIKR
# notes: Fab used for crystallization with human KLK5; lysines of the complex were methylated; also called Fab 10C5 Humanized
# B2: 9H5 Fab (Fab, V domains shown)
# VH: EVQLVESGGGLIQPGGSLRLSCAASGFSLSSYGVSWVRQAPGKGLEYVGFIGSGGFAYYASWAKSRFTISRDNSKNTLYLQMNSLRAEDTAVYYCARDDVGGGKSLDIWGQGTLVTVSS
# VL: DIQMTQSPSSLSASVGDRVTITCQASQSISSYLSWYQQKPGKAPKLLIYSASTLASGVPSRFSGSGSGTDFTLTISSLQPEDFATYYCHQDYTSSNVDNTFGGGTKVEIKR
# notes: Fab used for crystallization with human KLK5; lysines of the complex were methylated; also called Fab 9H5 Humanized
# B3: 3-3F5 Fab (Fab, V domains shown)
# VH: EVQLLESGGGLVQPGGSLRLSCAVSGFSLNDYGVSWVRQAPGKGLEWVGAIGSSGVAWYANFAKGRFTISRDNSKNTLYLQMNSLRAEDTAVYYCARDRDYGYRADDATSGMDLWGRGTLVTVSS
# VL: AIRMTQSPSSFSASTGDRVTITCQASESIGNALAWYQQKPGKAPKLLIYDASDLASGVPSRFSGSGSGTDFTLTISSLQPEDFATYYCQQGDSHNNVDNIFGGGTKVEIKR
# notes: Fab used for crystallization with human KLK5; also called 3F5.5 Fab; Fab 3-3F5 Humanized
# Molecular target: T1, Recombinant human KLK5 residues …
# Assay: crystal structure of the Fab/KLK5 complex
# Description: Recombinant human KLK5 residues I67-S293 (SEQ ID NO:328) was expressed in a Baculovirus expression system as a C-terminal fusion of ubiquitin with an Enterokinase cleavage site engineered between ubiquitin and KLK5. Sf9 cells were coexpressed with EndoH with 1 mg/mL of Kifunensine. Protein was purified on a HiTrap™ Heparin column. The column was washed with 25 mM TRIS pH 7.5 for 5 CV (column volumes), and then eluted with 0-750 mM NaCl over a gradient of 20 CV. Resultant protein pool was then further purified over 5200 by SEC in 25 mM Tris pH 7.5, 300 mM NaCl. The Ubiquitin was then cleaved using Enterokinase, and sample further purified by SEC again. […] Fab fragments including heavy and light chains were expressed and purified as described. See Carter et al., Biotechnology 10(2), 163-167 (1992). KLK5 was then mixed with each of the Fabs separately, 10C5, 9H5, and 3-3F5, and the complex was purified by SEC in 25 mM HEPES pH 7.2, 100 mM NaCl. […] Crystal for the 10C5 and 9H5 complexes were only obtained when the lysine residues in the protein complexes were methylated. See Walter et al., Structure, 14(11), 1617-1622 (2006).
row,buried surface area [Å^2],Binder
1,~860,B1
2,805,B2
3,956,B3
